# In PMC4694050 (Journal of the American Chemical Society, 2015):
# How the values were obtained:
# [1] = system: TIM from chicken muscle; conditions: chicken muscle TIM loop replacement mutant; pH 7.5, 25 °C; cited from earlier work
# [2] = system: TIM from chicken muscle; conditions: chicken muscle TIM loop replacement mutant; pH 7.5, 25 °C; cited from earlier work; remark: listed apart in the source
# [3] = system: TIM from chicken muscle; conditions: cited from earlier work
# [4] = system: ketosteroid isomerase (KSI) from Pseudomonas putida; conditions: cited from earlier work
# [5] = system: Triosephosphate Isomerase from Yeast; assay type: biochemical, Saccharomyces cerevisiae; conditions: isomerization of DHAP; pH 7.5, 25 °C, I = 0.1 (NaCl)
# [6] = system: Triosephosphate Isomerase from Yeast; assay type: biochemical, Saccharomyces cerevisiae; conditions: for GAP kcat: 30 mM triethanolamine pH 7.5, 25 °C
# [7] = system: yTIM; assay type: biochemical, Saccharomyces cerevisiae; conditions: unactivated deprotonation of glycolaldehyde
# [8] = biological target: T1, Triosephosphate Isomerase from Yeast (Saccharomyces cerevisiae, UniProt P00942, Y208F); conditions: isomerization of [l-^2H]-dihydroxyacetone phosphate; cited from earlier work
# T1 sequence (P00942 2-248 Y208F): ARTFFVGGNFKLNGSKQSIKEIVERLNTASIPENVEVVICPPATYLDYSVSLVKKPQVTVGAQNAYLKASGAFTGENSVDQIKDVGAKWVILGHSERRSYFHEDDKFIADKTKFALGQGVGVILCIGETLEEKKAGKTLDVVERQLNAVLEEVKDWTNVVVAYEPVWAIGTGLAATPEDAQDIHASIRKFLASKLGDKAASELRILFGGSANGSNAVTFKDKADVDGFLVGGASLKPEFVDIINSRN
# [9] = biological target: T1, Triosephosphate Isomerase from Yeast; assay type: biochemical
# [10] = isomerization of GAP, I = 0.1 (NaCl)
Molecule,DHAP kcat [5],"GAP kcat [6, 10] [s^–1]",further results
"208-TGAG for 208-YGGS (LRM): 208-TGAG for 208-YGGS loop 7 replacement mutation of TIM from chicken muscle (protein, UniProt P00940 2-248, looked up, variant Y208T G210A S211G) Triosephosphate isomerase: APRKFFVGGNWKMNGDKKSLGELIHTLNGAKLSADTEVVCGAPSIYLDFARQKLDAKIGVAAQNCYKVPKGAFTGEISPAMIKDIGAAWVILGHSERRHVFGESDELIGQKVAHALAEGLGVIACIGEKLDEREAGITEKVVFEQTKAIADNVKDWSKVVLAYEPVWAIGTGKTATPQQAQEVHEKLRGWLKSHVSDAVAQSTRIITGAGVTGGNCKELASQHDVDGFLVGGASLKPEFVDIINAKH",,,"GAP kcat [1]: 16 s^–1; DHAP kcat [2]: 8.0 s^–1; (kcat/Km)E•HPi/Kd ([3]; chicken muscle TIM loop replacement mutant, third-order rate constant): 95 M^–2 s^–1; effect of mutation on [(kcat/Km)E]obs: KC ([3]; chicken muscle TIM): no change"
"Y16F: Y16F mutant of ketosteroid isomerase (KSI) from Pseudomonas putida (protein, UniProt P07445 1-131, looked up, variant Y16F) Steroid Delta-isomerase: MNLPTAQEVQGLMARFIELVDVGDIEAIVQMYADDATVEDPFGQPPIHGREQIAAFYRQGLGGGKVRACLTGPVRASHNGCGAMPFRVEMVWNGQPCALDVIDVMRFDEHGRIQTMQAYWSEVNLSVREPQ",,,"falloff in activity [4]: 5000 fold; falloff in activity (decrease in kcat/Km) relative to that for Y16A, Y16G, Y16S and Y16T mutants [4]: ca. 100 fold"
"S211G (protein, UniProt P00942 2-248, looked up, variant S211G) Triosephosphate isomerase: ARTFFVGGNFKLNGSKQSIKEIVERLNTASIPENVEVVICPPATYLDYSVSLVKKPQVTVGAQNAYLKASGAFTGENSVDQIKDVGAKWVILGHSERRSYFHEDDKFIADKTKFALGQGVGVILCIGETLEEKKAGKTLDVVERQLNAVLEEVKDWTNVVVAYEPVWAIGTGLAATPEDAQDIHASIRKFLASKLGDKAASELRILYGGGANGSNAVTFKDKADVDGFLVGGASLKPEFVDIINSRN",810 ± 10 s^–1,7500 ± 500,activity relative to S211A TIM ([6]; S211G greater than S211A): 20 fold
"S211A (protein, UniProt P00942 2-248, looked up, variant S211A) Triosephosphate isomerase: ARTFFVGGNFKLNGSKQSIKEIVERLNTASIPENVEVVICPPATYLDYSVSLVKKPQVTVGAQNAYLKASGAFTGENSVDQIKDVGAKWVILGHSERRSYFHEDDKFIADKTKFALGQGVGVILCIGETLEEKKAGKTLDVVERQLNAVLEEVKDWTNVVVAYEPVWAIGTGLAATPEDAQDIHASIRKFLASKLGDKAASELRILYGGAANGSNAVTFKDKADVDGFLVGGASLKPEFVDIINSRN",linear plot,2800 ± 100,decrease in (kcat/Km)E compared with wildtype [7]: 30 fold
"Y208T/S211G (protein, UniProt P00942 2-248, looked up, variant Y208T S211G) Triosephosphate isomerase: ARTFFVGGNFKLNGSKQSIKEIVERLNTASIPENVEVVICPPATYLDYSVSLVKKPQVTVGAQNAYLKASGAFTGENSVDQIKDVGAKWVILGHSERRSYFHEDDKFIADKTKFALGQGVGVILCIGETLEEKKAGKTLDVVERQLNAVLEEVKDWTNVVVAYEPVWAIGTGLAATPEDAQDIHASIRKFLASKLGDKAASELRILTGGGANGSNAVTFKDKADVDGFLVGGASLKPEFVDIINSRN",135 ± 5 s^–1,520 ± 30,"DHAP kcat/Km [5]: (3.4 ± 0.2) × 10^4 M^–1 s^–1; GAP kcat/Km (upper value) ([6]; isomerization of GAP, pH 7.5, 25 °C, I = 0.1 (NaCl), calculated for total concentration of GAP): (7.3 ± 0.8) × 10^5 M^–1 s^–1; GAP kcat/Km (lower value) ([6]; isomerization of GAP, pH 7.5, 25 °C, calculated for the reactive carbonyl form, 4% of total GAP): 1.8 × 10^7 M^–1 s^–1"
"wildtype: wildtype triosephosphate isomerase from Saccharomyces cerevisiae (yTIM) (protein, UniProt P00942 2-248, looked up) Triosephosphate isomerase: ARTFFVGGNFKLNGSKQSIKEIVERLNTASIPENVEVVICPPATYLDYSVSLVKKPQVTVGAQNAYLKASGAFTGENSVDQIKDVGAKWVILGHSERRSYFHEDDKFIADKTKFALGQGVGVILCIGETLEEKKAGKTLDVVERQLNAVLEEVKDWTNVVVAYEPVWAIGTGLAATPEDAQDIHASIRKFLASKLGDKAASELRILYGGSANGSNAVTFKDKADVDGFLVGGASLKPEFVDIINSRN",860 ± 10 s^–1,8900 ± 700,
"Y208T (protein, UniProt P00942 2-248, looked up, variant Y208T) Triosephosphate isomerase: ARTFFVGGNFKLNGSKQSIKEIVERLNTASIPENVEVVICPPATYLDYSVSLVKKPQVTVGAQNAYLKASGAFTGENSVDQIKDVGAKWVILGHSERRSYFHEDDKFIADKTKFALGQGVGVILCIGETLEEKKAGKTLDVVERQLNAVLEEVKDWTNVVVAYEPVWAIGTGLAATPEDAQDIHASIRKFLASKLGDKAASELRILTGGSANGSNAVTFKDKADVDGFLVGGASLKPEFVDIINSRN",580 ± 10 s^–1,3700 ± 50,
"Y208S (protein, UniProt P00942 2-248, looked up, variant Y208S) Triosephosphate isomerase: ARTFFVGGNFKLNGSKQSIKEIVERLNTASIPENVEVVICPPATYLDYSVSLVKKPQVTVGAQNAYLKASGAFTGENSVDQIKDVGAKWVILGHSERRSYFHEDDKFIADKTKFALGQGVGVILCIGETLEEKKAGKTLDVVERQLNAVLEEVKDWTNVVVAYEPVWAIGTGLAATPEDAQDIHASIRKFLASKLGDKAASELRILSGGSANGSNAVTFKDKADVDGFLVGGASLKPEFVDIINSRN",250 ± 5 s^–1,940 ± 30,
"Y208F: Y208F loop 7 mutant of yeast triosephosphate isomerase (protein, UniProt P00942 2-248, looked up, variant Y208F) Triosephosphate isomerase: ARTFFVGGNFKLNGSKQSIKEIVERLNTASIPENVEVVICPPATYLDYSVSLVKKPQVTVGAQNAYLKASGAFTGENSVDQIKDVGAKWVILGHSERRSYFHEDDKFIADKTKFALGQGVGVILCIGETLEEKKAGKTLDVVERQLNAVLEEVKDWTNVVVAYEPVWAIGTGLAATPEDAQDIHASIRKFLASKLGDKAASELRILFGGSANGSNAVTFKDKADVDGFLVGGASLKPEFVDIINSRN",4.5 ± 0.3 s^–1,13 ± 1,primary deuterium kinetic isotope effect kH/kD on kcat/Km [8]: 6; decrease in (kcat/Km)E compared with wildtype [7]: 20 fold; reduction in kcat implied by deviation from Figure 7 correlation ([9]; kcat for GAP vs Kd^⧧ correlation): 40 fold; negative deviation from the correlation in Figure 7 ([9]; log kcat for GAP vs intrinsic dianion binding energy): 1.6 log unit; reduction in enzyme activity compared to the Y208A and Y208S mutants [6]: ca. 50 fold
"Y208A (protein, UniProt P00942 2-248, looked up, variant Y208A) Triosephosphate isomerase: ARTFFVGGNFKLNGSKQSIKEIVERLNTASIPENVEVVICPPATYLDYSVSLVKKPQVTVGAQNAYLKASGAFTGENSVDQIKDVGAKWVILGHSERRSYFHEDDKFIADKTKFALGQGVGVILCIGETLEEKKAGKTLDVVERQLNAVLEEVKDWTNVVVAYEPVWAIGTGLAATPEDAQDIHASIRKFLASKLGDKAASELRILAGGSANGSNAVTFKDKADVDGFLVGGASLKPEFVDIINSRN",210 ± 5 s^–1,740 ± 10,
